Measurements reported in the DeepSol protein solubility set.

Assay: soluble on expression in E. coli; label from the status in PepcDB or PDB records

Row | Sequence | soluble on expression in E. coli
1 | MKRVRLQEVAQVAGVSLGLASAVLNGRHVRARPETVERIREAAQRLGYVPDRMAQAMRWGRTGIIALVVPNFANPYYSALAVEVQRAAWEADLEVLVYANPTEDLAQVSRAVSARRVDGGIIVVSHYTPEELKAHLPLEIPWVGVGHALEPLPFDRVSFKDKEAAMDAVRYLADKGYRRIAHLAGPAPSPTAKARLEGYLEAVSALGMPALVQEGTFRYGDNQRALQTLLGWRADALLAGNDLMALEALAFLQDRGVPVPQGMAVVGFDGIPMGEWVRPQLTTIVRSPRASAQAALARLLARLEGAGEPPQEVWLDTSLRPGDSA | soluble
2 | MSGFLEQRLGHCLRQMAEKGLEALLVTHLTNSYYLTGFSGTAATVLITAKRRVLITDSRYTLLAKASVEGFDIIESRTPLKVVAELLEADQIDCLGFEDQVSFSFYQAMQAELSGITLLAQSGFVEHLR | soluble
3 | MIRLNVFVRVNETNREKAIEAAKELTACSLKEEGCIAYDTFESSTRRDVFMICETWQNAEVLAAHEKTAHFAQYVGIIQELAEMKLEKFEF | soluble
4 | MIGRVFRIFREKGGILKALGLWEWYENLPHKYQKKVKHYYSLKTIKSINFPYKAKHFDTGEVENVLYTKRTFLGTIAQTALLEGDLEFAEWLYNEALKMEGSPYEAHLILNDLVLLAQKQRDLEKVKKYVLQDVELYPEYKEELKSRWGGTLPQIMAFEIYVYLLEREGKIKEALELVEWIKKEGITYPYYDQVKERLLQKLK | not soluble
5 | MRILTLGLDGSGEFAFQSHAHTDHFANGRLIFATRPTIFLSHLRNSRYYIPVDFGKKFYIGDFKAKLYPSGHILGSSGIKIWLDEGTLYYTGDVKVKKLRTVERAKLPKADFLIIESTFGLPRFTFPDPRESEKVIIGIVEDLIDRGKVPTFMANPYGKAQEIIKILNVHGYSVSVDREIAKVSKFYMKFGVRLKFEKEGEVKVSSSKGISVSGFGRIKLSNHADFWELLEIVERVNPEKVFTVYGHAEAFAKILNGLGYEAKSIRRNQKLEVWLEHHHHHH | not soluble
6 | MVKAEFGLYSATGGRVLVWLEQIHVQPLELLSTDERIRRQSIGVTILWNNILVMIQCDGNILPQKHQGFYRFHCEFQQRSLHTAEHLMSFMDEGS | not soluble
7 | NHELDWSDIKGQHHAKNAMVIAACGGHSILLSGAPGSGKTMMAKRFSTLLPELSETQALECAAINSIRGKLPDFREWRLPPFRAPHHTASPVALVGGGNPPKPGEISLAHHGVLFLDELPEFNRQVLETLREPLESGHICISRAAAQIEFPAKFQLIAAMNPCPCGQWGNSQANCLCTPDRI | not soluble
8 | MSGLDDRKKLTHAKNRKPLNDIPKSAENRPNTRSTSSRRGAEKDVPITFIGSSRTVKADLPEFTNTRSRRPLHSESKKELSRNPVSRGEEHSSSLPKSSPESSVSVMSSNASLWSACTEEVNKIGVCAKRESRNLRVYKMKSFTSNMEQILSNDNQLAPTVIRILNSRNSWCLNSCHACLTFIMENITSDNYGKRSACLKALASITNSLLDTIIGFASTKTRRIGVDVVAEERAAKATECIHNFRKIVKNRDKIYKQIDQETIYKLDAILERLKKVSSHK | not soluble
9 | MSLEKWRIYEELTNAVREFESINPVRLIPEVGTNFVYSLPLPYARSTKDVAGVKGRIVKYGNSVKAVGPVEFGASDHLARAVLTYMRFYPEYRSAINIRYSREIIEEIIEIAQERGFKVSFYDRREEPEEIKAKEGATIPWGIETAIKRIKERPDIIYHLGDVGKEPMILVFGRNPREVLEKIKMLIEGHHHHHH | soluble
10 | MSLASLPGGASTLQETYQDWTVSCQSQKDTTACVMRQEQSSAQTGQRVLTAELRNVAGGKVDGVLLMPFGLDLAKGASLKIDDTAGPNLTFSTCLPQGCLAPVSFDAKQVAALKSGTNINVTTTALSPSQPVAFKISLKGFGAALDRIQALTKEGHHHHHH | soluble
11 | MPVKKVEKNILVLHGADKMFELVDKVEDYPHFLPWYSKTEVIGRSGNELKARLFMDYMHVRQSFATHNRNIPGREIRMELLEGPFKTLRGTWKFIDLGDDMCKIEFNLEYDFSNAVLSALISPVFNHLSTTLVEAFVKEADRRYA | not soluble
12 | TWTYILRQGDLPPGEMQRYEGGPEPVMVCNVDGEFFAVQDTCTHGDWALSDGYLDGDIVECTLHFGKFCVRTGKVKALPACKPIKVFPIKVEGDEVHVDLDNGELK | soluble
13 | MSLKGDYFFMDRRPLILVAEENLHNLELLNSHMKTLNYDCICAKQGVRAIILAQTQKPDLIILDMILSDLSGSQVINHLKQDSKTANIPIIAVIPFILVQNQDHLFLTGADDYITKPYNFIQLNTLITHYVNRRHSSSLLSEGHHHHHH | soluble
14 | MRILIASQPIAGHVLPLREIARELARRGHELRWYTGRKFRPQVEAAGAVWEGFVHARDYDDANFDAAFPGRSARRGLAQLLFDLRHVFVGQMEGQFYDLRDLERRWRPDVVLADQTVGAALLREELGGPPVALLGVLPLGIASRDTAPFGLGLAPLGGAAGQLRNRALQVLTERVVFRGISAQLADLCTWLGLPARSFAPPVAPSLMLQPSVPRLEYLRRDLPPQVRFIGPLVLPAGEFTPPAWWNDILTAERPVVLVTQGTLATRPEQLLRPALAALADEDVLVVAAGVAPERLGPLPANARAAAFVPFTALLPHVAVSLTNGGYGGTVQALSHGVPCVVAGRSEDKAEVAARVAYSGAGLNLGTATPSPARIRAAVRRVLREPAFREQAGELGHELRQHDAPREAADWLETLGGKKLEHHHHHH | not soluble
15 | MKDTVMMKLNTKESMAQIDGQTIYFKQIGEGKPPLLMLHGFGGSSDGFSDIYPELARDHTIIAVDILGFGRSSKPVDFQYSFPAQVNLYYKLMKKLGYNQFAVLGHSMGGEMSLNLAYLYPDAVTHLILADATGIESFQQKESYEVPPLSTDLQTVTEITKYNKNEVKNSRDDKEHYDQLTKMRERRIAMEADKIKVPTLIIWGRHDKSVSWKNGELYHGLFANSTFHIIEKGYHAPFRQEPIEFMEYVQAFFAKHPQ | not soluble
16 | MNADTADEEITKLLEFLIEQTKDAFEPMRALAVFESFGQLEEDPLDRKTYHYRFHQKIAPNMDSWNNYSIESRIRLMFALAGRVRDNFLESIQSQGTVELDEKNRICEYISNDGTLTLKGDHSDSARWARRITSTTNPTKSAAFAEKFMNFLVEKTKNVVEPVSVGGIYEEFSQIDGFGLSPAAYRTRFHINIVPEINEWNSYSIEERIRLLMALGALVPEDFLERIEAEGTVDLDEKGRILKYSSNDGNLNLDKRNIATANRRNSTAAHRKRSLDRDSESGSAKNARAVKSEPKSKPQSDLHYSSESDTDDVEFVESLPGKPKLEPIDYDYDQYFNRDVSYNNYDQEEVENRNVRLSIASSMPSLESNVIKLNDFLKEVRKFLCFLEISELDELKHQIKESVVQTAGANENLEISDLCTLLDAFFFSINQKTRSTIPNDSTMPVNVFLIKFKCFLLGMESPEFLDLQEKVQRKLDESDITEKILQLSDIQHAVQYLFFSVSH | not soluble
17 | MSATMQSETVYDAVIVGGGVAGGTAALLLRQRGCSVALLEKRPLDYYKALCTHFIQPSAVPILRRVGLDHVLEPEASTRTKASFVTSEGVIDTPGGYTDDAATAYAYNLERRVLDPALRARARSEGVDLLDEATVTACRLQADGLWRVEADADTDTDGARHPRVLRARVVIAADGRRSQMAQWLNNAAVQHDNQRAAVFAQFEGIAVPGGNRSLFILAEREMGFVYPLTGGRTLLSAYVEKDRAAQWRHSADAGAPLLDFFARLAPGLDLAGARLLTPVLGYADYPSQFRQPVCGAVPFIGDAALSLDPMSGVGCGFAMEAAALLDEHLGPALQAQGNSAIGPALDAYASRFDTHFAAHARGIVADSLIAKQPAAQAALYRAVIADPALQRDYLALTGRLITPQAFQRAYFSAHVRSQRAATTHAHPPERASELSLEHHHHHH | not soluble
18 | MSLTAPLEWKQANFLSISDSHGWLLGHQHSTWPEPNYSGNYGSFASFVIHMRKIADEKGVDLLLIDAGDHHDGSGLVSSSPDSASLAEDIFSMISYDVITIGNHELYHYADALDIYENHERWGGRYVTSNVNITVKREGEWQSVPIGQTHLKFTTKQGYNVTAFGVIFDFKAHDKGITVQKPSKLVHEPWFQEAIRDAPDYFILAGHMPVRGETAEFAPVFDAIRDIHPQVPIFLFGGHTHVRDCVQYDERSIGVVPGKYLETVAFTSSSLPSSSGDDRPLDVARSYQWHTNQTSYTFDTEGHHHHHH | soluble
19 | MAHHHHHHMHQHGKTSGTDGSGATVSQSSSGFMETPWRIFEYGVASEQGSRKTMEDQHAMVAESFPFFAVYDGHGGTQCAEFLRDNLHTFIFGQPEIETDPERATRAGIAEAENAFLTKCADEKIESGSTCAVALVVDDTLIAGNVGDSEIVLCRAGAPIVLSTKHSIQDNVSEGERVKACGGRIISNRVGHPKFNPQLLSLAITRAIGDAGFKLREFTDGKPSGVIADAETRSTRLTDDDKFLIIGCDGLWDVMSYEAAVQLCSRLASEGETPKAIAGSLCQEALRQGSTDNVTCIYINIRAKSSAPGCGQLGSGDPLHNM | soluble
20 | MTAQKMSAQEIIAFIGNAEKKTNVKVTFEGELATAVPSSVTKLGNVLFGDWKDIEPLLANLTENKDYVVEQDGRNSAVPLLDK | not soluble
21 | MGSDKIHHHHHHMRIIETIEEMKKFSEEMREKKKTIGFVPTMGYLHEGHLSLVRRARAENDVVVVSIFVNPTQFGPNEDYERYPRDFERDRKLLEKENVDCIFHPSVEEMYPPDFSTYVEETKLSKHLCGRSRPGHFRGVCTVVTKLFNIVKPHRAYFGQKDAQQFRVLRRMVRDLNMDVEMIECPIVREPDGLAMSSRNVYLSPEERQQALSLYQSLKIAENLYLNGERDAEKIKEEMIKHLSRFDKVKIDYVEIVDEETLEPVEKIDRKVIVAVAAWVGNARLIDNTILG | not soluble
22 | MEEGDIVGILKVFFVRTGAIGKRLGFKAGDIRIREEIVQANLTWKEDGEIRRERIKTRFFGYFRSHVAEWEPVIAAESVDVERGEVARIKIKEITLPEYTVITPLFIRRHALGSLIDVVQQGKRRKVEEKKRIGEAIFLPARSGRVEKGDLLGVINVYYIATENFSVGRREKDEVLAKVVDERGRKEFRIKPFAYRRKTIARWEPIVAAENRKVRKGEVEEIAIEPISLEENTIVYPLYVMRNAFGSVVDVVEERPRRVEERREIIKAVFLPVFDGEIRKGQLLGVMNVYSIEVQPYEVIWRWLEEWQGEFRRLFAEVVGLEHHHHHH | soluble
23 | MGSDKIHHHHHHMSNRKINPFVVTGKIEPEYFCDRESESARLIKSIANGNNSVVISPRRMGKTGLIQFCYDKEEIGRNYYTFFIDILHTSSLREFTYLLGREIYETLLPQSKKMINLFVRTLKSISGRFGFDPVSGMPTFGIELGDIEHPEYTLEEIFRYLADADRPCIVAIDEFQQIAKYPEKNIEALLRTHIQKLRNCNFIFAGSERHMMQEMFASAARPFYHSADMLELKAIEADVYIPFIVGHFEKRDRSISPDDAARVYRLFKGHTFYIQKTFNEAFADTPEGEVCTPEIIESAIDNMIASNDTIFREILSNIPEKQKTLLYAIAKEGEAERITSTGFIKRHNLISASSVQSAANKLLDKDIITEINKVYCVTDKLFAMWINTLYGTKDFWRMTSRP | not soluble
24 | MRKRKPLDYYLSLKYPVLLVAEPEGGYTALHPDLEGCVSVGETPEEALANLEEARRLWLEAAYEHGDEIPLPSTEREYSGRVLVRMPKSLHRRLDEEAKAEGVSLNQYIVSLPAERSSLRALKRELTRTGRAAEAPDSWEWGTSSGGGIWTGVLA | soluble
25 | MSYNLLGFLQRSSNFQSQKLLWQLNGRLEYCLKDRMNFDIPEEIKQLQQFQKEDAALTIYEMLQNIFAIFRQDSSSTGWNETIVENLLANVYHQINHLKTVLEEKLEKEDFTRGKLMSSLHLKRYYGRILHYLKAKEYSHCAWTIVRVEILRNFYFINRLTGYLRN | not soluble
